From paper PMC11650716, “Identification of a robust bacterial pyranose oxidase that displays an unusual pH dependence” (The Journal of Biological Chemistry, 2024)

Experiments:
[1] = target: T1, OPOx (pyranose oxidase from Oscillatoria princeps) (Oscillatoria princeps, UniProt A0ABF7PQA8); assay: X-ray crystal structure, […] Å; assay type: binding; settings: covalent; 8α-methyl of FAD bound to His125 NE2; crystals at pH 9.2
T1 construct: full length, 534 residues (533 also printed), N-terminal His-tag, pBAD vector, E. coli NEB 10-beta; synthetic codon-optimised gene; 61 kDa with tag; homotetramer
T1 sequence (A0ABF7PQA8 1-533): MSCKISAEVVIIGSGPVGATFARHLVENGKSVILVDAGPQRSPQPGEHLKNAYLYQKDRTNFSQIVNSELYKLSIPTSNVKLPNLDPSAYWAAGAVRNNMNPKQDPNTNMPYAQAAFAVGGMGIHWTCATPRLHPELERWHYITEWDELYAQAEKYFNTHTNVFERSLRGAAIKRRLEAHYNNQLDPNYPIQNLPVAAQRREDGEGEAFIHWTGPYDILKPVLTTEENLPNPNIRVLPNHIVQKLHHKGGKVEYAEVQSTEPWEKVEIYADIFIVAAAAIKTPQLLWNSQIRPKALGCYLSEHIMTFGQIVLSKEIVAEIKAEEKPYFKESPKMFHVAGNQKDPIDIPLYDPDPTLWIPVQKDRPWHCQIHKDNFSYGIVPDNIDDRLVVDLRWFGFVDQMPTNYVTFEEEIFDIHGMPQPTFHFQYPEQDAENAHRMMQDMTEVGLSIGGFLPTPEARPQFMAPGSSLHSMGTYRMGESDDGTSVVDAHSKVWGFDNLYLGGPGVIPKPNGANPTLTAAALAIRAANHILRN

[2] = target: pyranose oxidase from Oscillatoria princeps (OPOx) (Oscillatoria princeps); assay: crystal structure; X-ray, 2.64 Å, space group P2(1)2(1)2(1), tetramer in the asymmetric unit; crystals with sodium sulfate as additive at pH 9.2. A low-resolution C222(1) crystal form has a dimer in the asymmetric unit and forms the tetramer through a crystallographic two-fold axis
[3] = target: pyranose oxidase from Oscillatoria princeps (OPOx) (Oscillatoria princeps); assay: dynamic light scattering + SEC; DLS: about 15 μM OPOx in 50 mM citrate buffer (pH 5.5), 294 K; gel permeation chromatography (Fig. S3)

| Compound | X-ray crystal structure, 2.64 Å [1] | stoichiometry N [2] | stoichiometry N [3] |
| --- | --- | --- | --- |
| Cc1cc2nc3c(=O)[nH]c(=O)nc-3n(C[C@H](O)[C@H](O)[C@H](O)COP(=O)(O)OP(=O)(O)OC[C@H]3O[C@@H](n4cnc5c(N)ncnc54)[C@H](O)[C@@H]3O)c2cc1C [FAD] | crystal structure of OPOx with a covalently bound FAD cofactor per subunit | – | – |
| pyranose oxidase from Oscillatoria princeps (OPOx) (enzyme) | – | 4 | 4 |
